Assay results from patent US20150344570A1 (published 2015).

What was measured:
[1] = target: T1, FcγRIa extracellular domain with C-terminal His tag (human, UniProt P12314 16-292); assay: SPR (Biacore), relative binding, HeCon Ab = 100
T1 construct: extracellular domain; Expressed in FreeStyle293 cells; analyte in the SPR assay; also called FcgRI; 1a

[2] = target: T2, FcγRIIb extracellular domain with C-terminal His tag (human, UniProt P31994 43-217); assay: SPR (Biacore), relative binding, HeCon Ab = 100
T2 construct: extracellular domain; Expressed in FreeStyle293 cells; analyte in the SPR assay; also called FcgRIIb; 2b
T2 sequence (looked up): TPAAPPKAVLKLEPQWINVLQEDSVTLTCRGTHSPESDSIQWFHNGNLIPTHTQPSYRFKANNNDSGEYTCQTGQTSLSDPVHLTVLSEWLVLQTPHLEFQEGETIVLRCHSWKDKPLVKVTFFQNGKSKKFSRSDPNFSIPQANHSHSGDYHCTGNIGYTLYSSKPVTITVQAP

T1 sequence (P12314 16-292): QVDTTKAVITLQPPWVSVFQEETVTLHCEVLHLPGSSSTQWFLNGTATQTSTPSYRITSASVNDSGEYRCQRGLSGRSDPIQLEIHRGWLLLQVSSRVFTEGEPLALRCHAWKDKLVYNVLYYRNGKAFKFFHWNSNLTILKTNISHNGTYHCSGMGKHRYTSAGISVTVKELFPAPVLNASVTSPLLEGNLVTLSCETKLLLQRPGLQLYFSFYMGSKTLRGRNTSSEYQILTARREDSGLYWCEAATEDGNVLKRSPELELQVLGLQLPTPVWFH

Binder	He/Con_1a [1]	He/Con_2b [2]
GpH7-A5/GpH7-B3 variant P271_12R/GpL16-k0 (He Ab) (antibody, human IgG1, kappa, He Ab: mutation in one H chain only) heavy 1: not shown heavy 2: not shown light: DIVMTQSPLSLPVTPGEPASISCQASESLVHSNRNTYLHWYLQKPGQSPQLLIYKVSNRFSGVPDRFSGSGSGTDFTLKISRVEAEDVGVYYCSQNTHVPPTFGQGTKVEIERTVAAPSVFIFPPSDEQLKSGTASVVCLLNNFYPREAKVQWKVDNALQSGNSQESVTEQDSKDSTYSLSSTLTLSKADYEKHKVYACEVTHQGLSSPVTKSFNRGEC	102 % of HeCon Ab (=100)	86.5 % of HeCon Ab (=100)
GpH7-A5/GpH7-B3 variant P271_13S/GpL16-k0 (He Ab) (antibody, human IgG1, kappa, He Ab: mutation in one H chain only) heavy 1: not shown heavy 2: not shown light: DIVMTQSPLSLPVTPGEPASISCQASESLVHSNRNTYLHWYLQKPGQSPQLLIYKVSNRFSGVPDRFSGSGSGTDFTLKISRVEAEDVGVYYCSQNTHVPPTFGQGTKVEIERTVAAPSVFIFPPSDEQLKSGTASVVCLLNNFYPREAKVQWKVDNALQSGNSQESVTEQDSKDSTYSLSSTLTLSKADYEKHKVYACEVTHQGLSSPVTKSFNRGEC	102 % of HeCon Ab (=100)	87.6 % of HeCon Ab (=100)
GpH7-A5/GpH7-B3 variant P271_18N/GpL16-k0 (He Ab) (antibody, human IgG1, kappa, He Ab: mutation in one H chain only) heavy 1: not shown heavy 2: not shown light: DIVMTQSPLSLPVTPGEPASISCQASESLVHSNRNTYLHWYLQKPGQSPQLLIYKVSNRFSGVPDRFSGSGSGTDFTLKISRVEAEDVGVYYCSQNTHVPPTFGQGTKVEIERTVAAPSVFIFPPSDEQLKSGTASVVCLLNNFYPREAKVQWKVDNALQSGNSQESVTEQDSKDSTYSLSSTLTLSKADYEKHKVYACEVTHQGLSSPVTKSFNRGEC	103 % of HeCon Ab (=100)	93.3 % of HeCon Ab (=100)
GpH7-A5/GpH7-B3 variant Q295_05P/GpL16-k0 (He Ab) (antibody, human IgG1, kappa, He Ab: mutation in one H chain only) heavy 1: not shown heavy 2: not shown light: DIVMTQSPLSLPVTPGEPASISCQASESLVHSNRNTYLHWYLQKPGQSPQLLIYKVSNRFSGVPDRFSGSGSGTDFTLKISRVEAEDVGVYYCSQNTHVPPTFGQGTKVEIERTVAAPSVFIFPPSDEQLKSGTASVVCLLNNFYPREAKVQWKVDNALQSGNSQESVTEQDSKDSTYSLSSTLTLSKADYEKHKVYACEVTHQGLSSPVTKSFNRGEC	103 % of HeCon Ab (=100)	67.5 % of HeCon Ab (=100)
GpH7-A5/GpH7-B3 variant Q295_02A/GpL16-k0 (He Ab) (antibody, human IgG1, kappa, He Ab: mutation in one H chain only) heavy 1: not shown heavy 2: not shown light: DIVMTQSPLSLPVTPGEPASISCQASESLVHSNRNTYLHWYLQKPGQSPQLLIYKVSNRFSGVPDRFSGSGSGTDFTLKISRVEAEDVGVYYCSQNTHVPPTFGQGTKVEIERTVAAPSVFIFPPSDEQLKSGTASVVCLLNNFYPREAKVQWKVDNALQSGNSQESVTEQDSKDSTYSLSSTLTLSKADYEKHKVYACEVTHQGLSSPVTKSFNRGEC	104 % of HeCon Ab (=100)	79.7 % of HeCon Ab (=100)
GpH7-A5/GpH7-B3 variant P271_16H/GpL16-k0 (He Ab) (antibody, human IgG1, kappa, He Ab: mutation in one H chain only) heavy 1: not shown heavy 2: not shown light: DIVMTQSPLSLPVTPGEPASISCQASESLVHSNRNTYLHWYLQKPGQSPQLLIYKVSNRFSGVPDRFSGSGSGTDFTLKISRVEAEDVGVYYCSQNTHVPPTFGQGTKVEIERTVAAPSVFIFPPSDEQLKSGTASVVCLLNNFYPREAKVQWKVDNALQSGNSQESVTEQDSKDSTYSLSSTLTLSKADYEKHKVYACEVTHQGLSSPVTKSFNRGEC	102 % of HeCon Ab (=100)	67.9 % of HeCon Ab (=100)
GpH7-A5/GpH7-B3 variant Q295_03V/GpL16-k0 (He Ab) (antibody, human IgG1, kappa, He Ab: mutation in one H chain only) heavy 1: not shown heavy 2: not shown light: DIVMTQSPLSLPVTPGEPASISCQASESLVHSNRNTYLHWYLQKPGQSPQLLIYKVSNRFSGVPDRFSGSGSGTDFTLKISRVEAEDVGVYYCSQNTHVPPTFGQGTKVEIERTVAAPSVFIFPPSDEQLKSGTASVVCLLNNFYPREAKVQWKVDNALQSGNSQESVTEQDSKDSTYSLSSTLTLSKADYEKHKVYACEVTHQGLSSPVTKSFNRGEC	104 % of HeCon Ab (=100)	75.7 % of HeCon Ab (=100)
GpH7-A5/GpH7-B3 variant Q295_04F/GpL16-k0 (He Ab) (antibody, human IgG1, kappa, He Ab: mutation in one H chain only) heavy 1: not shown heavy 2: not shown light: DIVMTQSPLSLPVTPGEPASISCQASESLVHSNRNTYLHWYLQKPGQSPQLLIYKVSNRFSGVPDRFSGSGSGTDFTLKISRVEAEDVGVYYCSQNTHVPPTFGQGTKVEIERTVAAPSVFIFPPSDEQLKSGTASVVCLLNNFYPREAKVQWKVDNALQSGNSQESVTEQDSKDSTYSLSSTLTLSKADYEKHKVYACEVTHQGLSSPVTKSFNRGEC	102 % of HeCon Ab (=100)	64.7 % of HeCon Ab (=100)
GpH7-A5/GpH7-B3 variant P271_20W/GpL16-k0 (He Ab) (antibody, human IgG1, kappa, He Ab: mutation in one H chain only) heavy 1: not shown heavy 2: not shown light: DIVMTQSPLSLPVTPGEPASISCQASESLVHSNRNTYLHWYLQKPGQSPQLLIYKVSNRFSGVPDRFSGSGSGTDFTLKISRVEAEDVGVYYCSQNTHVPPTFGQGTKVEIERTVAAPSVFIFPPSDEQLKSGTASVVCLLNNFYPREAKVQWKVDNALQSGNSQESVTEQDSKDSTYSLSSTLTLSKADYEKHKVYACEVTHQGLSSPVTKSFNRGEC	103 % of HeCon Ab (=100)	58.1 % of HeCon Ab (=100)
GpH7-A5/GpH7-B3 variant P271_14T/GpL16-k0 (He Ab) (antibody, human IgG1, kappa, He Ab: mutation in one H chain only) heavy 1: not shown heavy 2: not shown light: DIVMTQSPLSLPVTPGEPASISCQASESLVHSNRNTYLHWYLQKPGQSPQLLIYKVSNRFSGVPDRFSGSGSGTDFTLKISRVEAEDVGVYYCSQNTHVPPTFGQGTKVEIERTVAAPSVFIFPPSDEQLKSGTASVVCLLNNFYPREAKVQWKVDNALQSGNSQESVTEQDSKDSTYSLSSTLTLSKADYEKHKVYACEVTHQGLSSPVTKSFNRGEC	102 % of HeCon Ab (=100)	95.4 % of HeCon Ab (=100)
GpH7-A5/GpH7-B3 variant P271_19Q/GpL16-k0 (He Ab) (antibody, human IgG1, kappa, He Ab: mutation in one H chain only) heavy 1: not shown heavy 2: not shown light: DIVMTQSPLSLPVTPGEPASISCQASESLVHSNRNTYLHWYLQKPGQSPQLLIYKVSNRFSGVPDRFSGSGSGTDFTLKISRVEAEDVGVYYCSQNTHVPPTFGQGTKVEIERTVAAPSVFIFPPSDEQLKSGTASVVCLLNNFYPREAKVQWKVDNALQSGNSQESVTEQDSKDSTYSLSSTLTLSKADYEKHKVYACEVTHQGLSSPVTKSFNRGEC	103 % of HeCon Ab (=100)	88.6 % of HeCon Ab (=100)
GpH7-A5/GpH7-B3 variant P271_15Y/GpL16-k0 (He Ab) (antibody, human IgG1, kappa, He Ab: mutation in one H chain only) heavy 1: not shown heavy 2: not shown light: DIVMTQSPLSLPVTPGEPASISCQASESLVHSNRNTYLHWYLQKPGQSPQLLIYKVSNRFSGVPDRFSGSGSGTDFTLKISRVEAEDVGVYYCSQNTHVPPTFGQGTKVEIERTVAAPSVFIFPPSDEQLKSGTASVVCLLNNFYPREAKVQWKVDNALQSGNSQESVTEQDSKDSTYSLSSTLTLSKADYEKHKVYACEVTHQGLSSPVTKSFNRGEC	103 % of HeCon Ab (=100)	52.3 % of HeCon Ab (=100)

The next lines start with the values.

He/Con_1a [1]	He/Con_2b [2]	Binder
100 % of HeCon Ab (=100)	89.2 % of HeCon Ab (=100)	GpH7-A5/GpH7-B3 variant V266_19Q/GpL16-k0 (He Ab) (antibody, human IgG1, kappa, He Ab: mutation in one H chain only) heavy 1: not shown heavy 2: not shown light: DIVMTQSPLSLPVTPGEPASISCQASESLVHSNRNTYLHWYLQKPGQSPQLLIYKVSNRFSGVPDRFSGSGSGTDFTLKISRVEAEDVGVYYCSQNTHVPPTFGQGTKVEIERTVAAPSVFIFPPSDEQLKSGTASVVCLLNNFYPREAKVQWKVDNALQSGNSQESVTEQDSKDSTYSLSSTLTLSKADYEKHKVYACEVTHQGLSSPVTKSFNRGEC
101 % of HeCon Ab (=100)	86.1 % of HeCon Ab (=100)	GpH7-A5/GpH7-B3 variant S239_19Q/GpL16-k0 (He Ab) (antibody, human IgG1, kappa, He Ab: mutation in one H chain only) heavy 1: not shown heavy 2: not shown light: DIVMTQSPLSLPVTPGEPASISCQASESLVHSNRNTYLHWYLQKPGQSPQLLIYKVSNRFSGVPDRFSGSGSGTDFTLKISRVEAEDVGVYYCSQNTHVPPTFGQGTKVEIERTVAAPSVFIFPPSDEQLKSGTASVVCLLNNFYPREAKVQWKVDNALQSGNSQESVTEQDSKDSTYSLSSTLTLSKADYEKHKVYACEVTHQGLSSPVTKSFNRGEC
103 % of HeCon Ab (=100)	84.3 % of HeCon Ab (=100)	GpH7-A5/GpH7-B3 variant Q295_07I/GpL16-k0 (He Ab) (antibody, human IgG1, kappa, He Ab: mutation in one H chain only) heavy 1: not shown heavy 2: not shown light: DIVMTQSPLSLPVTPGEPASISCQASESLVHSNRNTYLHWYLQKPGQSPQLLIYKVSNRFSGVPDRFSGSGSGTDFTLKISRVEAEDVGVYYCSQNTHVPPTFGQGTKVEIERTVAAPSVFIFPPSDEQLKSGTASVVCLLNNFYPREAKVQWKVDNALQSGNSQESVTEQDSKDSTYSLSSTLTLSKADYEKHKVYACEVTHQGLSSPVTKSFNRGEC
104 % of HeCon Ab (=100)	90.4 % of HeCon Ab (=100)	GpH7-A5/GpH7-B3 variant Q295_06M/GpL16-k0 (He Ab) (antibody, human IgG1, kappa, He Ab: mutation in one H chain only) heavy 1: not shown heavy 2: not shown light: DIVMTQSPLSLPVTPGEPASISCQASESLVHSNRNTYLHWYLQKPGQSPQLLIYKVSNRFSGVPDRFSGSGSGTDFTLKISRVEAEDVGVYYCSQNTHVPPTFGQGTKVEIERTVAAPSVFIFPPSDEQLKSGTASVVCLLNNFYPREAKVQWKVDNALQSGNSQESVTEQDSKDSTYSLSSTLTLSKADYEKHKVYACEVTHQGLSSPVTKSFNRGEC
101 % of HeCon Ab (=100)	97.3 % of HeCon Ab (=100)	GpH7-A5/GpH7-B3 variant S239_14T/GpL16-k0 (He Ab) (antibody, human IgG1, kappa, He Ab: mutation in one H chain only) heavy 1: not shown heavy 2: not shown light: DIVMTQSPLSLPVTPGEPASISCQASESLVHSNRNTYLHWYLQKPGQSPQLLIYKVSNRFSGVPDRFSGSGSGTDFTLKISRVEAEDVGVYYCSQNTHVPPTFGQGTKVEIERTVAAPSVFIFPPSDEQLKSGTASVVCLLNNFYPREAKVQWKVDNALQSGNSQESVTEQDSKDSTYSLSSTLTLSKADYEKHKVYACEVTHQGLSSPVTKSFNRGEC
100 % of HeCon Ab (=100)	65.9 % of HeCon Ab (=100)	GpH7-A5/GpH7-B3 variant S267_16H/GpL16-k0 (He Ab) (antibody, human IgG1, kappa, He Ab: mutation in one H chain only) heavy 1: not shown heavy 2: not shown light: DIVMTQSPLSLPVTPGEPASISCQASESLVHSNRNTYLHWYLQKPGQSPQLLIYKVSNRFSGVPDRFSGSGSGTDFTLKISRVEAEDVGVYYCSQNTHVPPTFGQGTKVEIERTVAAPSVFIFPPSDEQLKSGTASVVCLLNNFYPREAKVQWKVDNALQSGNSQESVTEQDSKDSTYSLSSTLTLSKADYEKHKVYACEVTHQGLSSPVTKSFNRGEC
102 % of HeCon Ab (=100)	47.7 % of HeCon Ab (=100)	GpH7-A5/GpH7-B3 variant S267_18N/GpL16-k0 (He Ab) (antibody, human IgG1, kappa, He Ab: mutation in one H chain only) heavy 1: not shown heavy 2: not shown light: DIVMTQSPLSLPVTPGEPASISCQASESLVHSNRNTYLHWYLQKPGQSPQLLIYKVSNRFSGVPDRFSGSGSGTDFTLKISRVEAEDVGVYYCSQNTHVPPTFGQGTKVEIERTVAAPSVFIFPPSDEQLKSGTASVVCLLNNFYPREAKVQWKVDNALQSGNSQESVTEQDSKDSTYSLSSTLTLSKADYEKHKVYACEVTHQGLSSPVTKSFNRGEC
